Here are results for five molecules from publication PMC9006937, “Structure-Based Design and Antigenic Validation of Respiratory Syncytial Virus G Immunogens” (Journal of Virology, 2022).

Common to all, as to assay: BLI; Octet RED384; MAb (1 µg/mL) captured on anti-human IgG Fc (AHC) biosensors; RSV G^ecto proteins in solution, 40 nM 2-fold serially diluted to 0.63 nM (higher starting concentrations for CX4C); PBS pH 7.4, 0.05% Tween 20, 1% BSA; association 300 s, dissociation 600 s; global 1:1 fit; in duplicate
(In general: BLI is a label-free optical method that tracks binding on a fibre tip over time.)

Assay [1] has as its target human anti-RSV G monoclonal antibody 2D10 (human).
Assay [2] has as its target human anti-RSV G monoclonal antibody 3D3 (human).
Assay [3] deals with human anti-RSV G monoclonal antibody 3G12 (human).
Assay [4] deals with T1, RSV G ectodomain wild-type protein (RSV strain A2, residues 64 to 298) (Human respiratory syncytial virus A, …, UniProt P03423).
T1 construct: glycosylated, runs at about 90 kDa on SDS-PAGE; also called RSV G^ecto WT; wild-type RSV G
As to conditions: both partners purified.

As usually defined, the Kd is the constant that tells how readily two partners part at equilibrium. Lower therefore signals tighter binding. A word on the koff: it is the rate constant with which the complex falls apart. High values mean a short-lived complex, low ones a long-lived complex. Broadly, the kon is the second-order rate constant of association.

“And” between values parts separate entries of the source, which are not always exact repeats. Identical values can stand only once. Some results are limits rather than exact numbers.

For “RSV G ectodomain S177Q mutant protein (residues 64 to 298) (from UniProt P03423 64-298) (domain or fragment)”, in assay [1], the Kd is 0.605 nM and 0.485 nM; the koff is 0.000225 s⁻¹ and 0.00015 s⁻¹; the kon is 371000 M⁻¹ s⁻¹ and 310000 M⁻¹ s⁻¹. In assay [2], the Kd was 0.538 nM and 0.264 nM; the koff was 0.000199 s⁻¹ and 0.000109 s⁻¹; the kon was 369000 M⁻¹ s⁻¹ and 414000 M⁻¹ s⁻¹. For the same molecule, in assay [3], the Kd was 1.88 nM and 2.28 nM; the koff was 0.000447 s⁻¹ and 0.000528 s⁻¹; the kon was 238000 M⁻¹ s⁻¹ and 232000 M⁻¹ s⁻¹.
Consider “RSV G ectodomain S177R mutant protein (residues 64 to 298) (from UniProt P03423 64-298) (domain or fragment)”, for which, in assay [1], the dissociation constant (Kd) is less than 0.001 nM; the koff is less than 1e-07 s⁻¹; the kon is 318000 M⁻¹ s⁻¹ and 253000 M⁻¹ s⁻¹. Further, in assay [2], the Kd is 0.422 nM and 0.57 nM; the koff was 0.000104 s⁻¹ and 0.000151 s⁻¹; the kon is 247000 M⁻¹ s⁻¹ and 265000 M⁻¹ s⁻¹. Moreover, in assay [3], the Kd was 4.34 nM and 4.6 nM; the koff is 0.000581 s⁻¹ and 0.000672 s⁻¹; the kon is 134000 M⁻¹ s⁻¹ and 146000 M⁻¹ s⁻¹.

B1: human anti-RSV G monoclonal antibody 3D3 (antibody, V domains shown)
VH: EEQLVESGGGLVQPGRSLRLSCVGSGLRFEEHAMHWVRQAPGRGLEWVSGISWNSGSVGYADSVKGRFTTSRDNAKDILFLEMNTLRSEDTALYFCAIMVATTKNDFHYYKDVWGKGTTVTVSS
VL: QIVLTQSPATLSLSPGERATLSCRASQSVSNHLAWYQQKPGQAPRLLIYETSNRATGIPPRFSGSGSGTDFTLTISSLEPEDFAVYYCQQRNNWYTFGQGTKLEIK
notes: heavy chain of human MAb 3D3; light chain of human MAb 3D3; Whole IgG, captured by anti-human IgG Fc biosensors; also called MAb 3D3
With B1, in assay [4], the Kd is less than 0.001 nM; the koff is less than 1e-07 s⁻¹; the kon was 426000 M⁻¹ s⁻¹ and 431000 M⁻¹ s⁻¹.

B2: human anti-RSV G monoclonal antibody 2D10 (antibody, V domains shown)
VH: QVQLVQSGPEVKKPGASVRLSCKASGYVFTNYGVSWVRQAPGQGLEWMGWSSPYNGNTYYAQKLKARVTMTTDTSTNTAYMELRSLRSDDTAVYYCGRDMLGVVQAVAGPFDSWGQGTLVTVSS
VL: DTPMTQSPSSVSASVGDRVTISCRASQGISNSLAWYQQKLGKAPQLLIYAASSLQSGVPSRFSGSGSGTDFTLTISSLQPEDFATYYCQQTNTFPFTFGPGTKVEVR
notes: heavy-chain variable region of human MAb 2D10; human IgG1 heavy-chain constant region as in the pCMVR VRC01 heavy-chain vector (AIDS Reagent Program); light-chain variable region of human MAb 2D10; light-chain constant region of the pCMVR VRC01 light-chain vector; IgG1; variable regions of 2D10 put in place of those of antibody VRC01 in the pCMVR VRC01 vectors; also called MAb 2D10
Regarding B2, in assay [4], the Kd is less than 0.001 nM; the koff was less than 1e-07 s⁻¹; the kon was 370000 M⁻¹ s⁻¹ and 383000 M⁻¹ s⁻¹.

B3: human anti-RSV G monoclonal antibody 3G12 (antibody, V domains shown)
VH: QLQLQESGPGLVKPSETLSLTCTVSGGSISSSNYYWGWIRQPPGKGLEWIASIHDSGSIYYNPSLRSRVTISVDTSKNQFSLKLSSVTAADTAVYYCARHLVWFGELRNNWFDPWGQGTLVTVAS
VL: EIVMTQSPATLSVSPGERATLSCRASQSVNSNLAWYQHKPGQAPRLLIYGASTRATGIPARFSGSGSGTDFTLTISSLQSEDFAVYYCQQYNNWPLFGPGTKVDLK
notes: heavy chain of human MAb 3G12; light chain of human MAb 3G12; Whole IgG, captured by anti-human IgG Fc biosensors; also called MAb 3G12
With B3, in assay [4], the Kd is 0.26 nM and 0.262 nM; the koff was 6.55e-05 s⁻¹ and 5.19e-05 s⁻¹; the kon was 252000 M⁻¹ s⁻¹ and 198000 M⁻¹ s⁻¹.
